Measured values: patent publication US11464867B2, “Multimeric elastin-like polypeptides” (University of Southern California, priority 2018, dated 2022)
Values joined by “and” are separate entries in the source; they are usually repeats but may differ in a detail not shown here. Equal entries are not always repeated. “Also recorded” adds a separate entry of the source.

Experiments:
[1] = Multivariate fit of the phase diagram of ELP monoblock copolymers; assay type: physicochemical; conditions: for Tc: critical transition temperature; for n: dependence on inverse of ELP length; for m: dependence on natural logarithm of concentration; for K: interaction term between length and concentration
Text: The Tt of the ELP component can be modified by varying ELP chain length, as the Tt generally increases with decreasing MW. For polypeptides having a molecular weight >100,000, the hydrophobicity scale developed by Urry et al. (PCT/US96/05186, which is hereby incorporated by reference in its entirety) is preferred for predicting the approximate Tt of a specific ELP sequence. However, in some embodiments, ELP component length can be kept relatively small, while maintaining a target Tt, by incorporating a larger fraction of hydrophobic guest residues (e.g., amino acid residues having hydrophobic side chains) in the ELP sequence. For polypeptides having a molecular weight <100,000, the Tt may be predicted or determined by the following function:
[formula] where Tc is a critical transition temperature, m is the dependence on the natural logarithm of concentration, n is the dependence on the inverse of the ELP length l, and k is an interaction term between length and concentration.

[2] = CsA encapsulation by two-phase solvent evaporation, RP-HPLC; assay type: physicochemical; conditions: for CsA loading compared with a comparator: in words
Method: The mixture was incubated at 37° C. and samples were collected at different time points up to 48 h.
This was followed by high-speed centrifugation and filtration to remove the excess insoluble drug. […] The mobile phase flow rate was set to 1.0 ml/min. The linear gradient from 20% to 95% of methanol was applied from 0 to 5 min. Then the mobile phase was changed to 95% methanol isocratic flow for 10 min.
This was followed by high-speed centrifugation and filtration to remove the excess insoluble drug. The loading ratio was then determined by reversed-phase high-performance liquid chromatography (RP-HPLC) analysis method.
The drug loading capability of 2nd and 3rd generation carriers were also tested using the same encapsulation method detailed above employing the method of Shi, et al., 2013.

[3] = Phase transition temperature by optical density (UV-Vis, 350 nm) versus temperature; assay type: physicochemical; conditions: for Transition temperature (Tt): at 25 μM, 1° C./min; for Slope, m: fit Tt = b - m Log10[CELP]; for Intercept, b: intercept at 1 μM
Method: The temperature with the maximum positive slope was defined as the phase transition temperature for each condition. (FIG. 2B) The concentration-temperature phase diagram was determined for both ELPs, and fit to the following equation: Tt=b−m Log10[CELP].
Both ELPs at different concentrations (5 μM to 100 μM) were subject to a precisely controlled temperature increase from 25 to 75° C. at a rate of 1° C./min. The Tt of ELPs is defined as the temperature at which the first derivative of the optical density with respect to the temperature reaches a maximum.

[4] = Dynamic light scattering (DLS) hydrodynamic radius and stability; assay type: physicochemical
Method: FIGS. 5A-5D: CA192 (SEQ ID NO: 3) has a good stability in terms of hydrodynamic radius. There are two fractions present in the CA192 (SEQ ID NO: 3) solution: an aggregated form and dimeric form. A dimerized form has similar hydrodynamic radius, Rh as A192. […] Drug-loaded CA192 (SEQ ID NO: 3) has a mean Rh of 64.5±0.5 nm (p<0.05). […] (FIG. 5C) Size Exclusion Chromatography (SEC) was conducted to fractionate CA192 (SEQ ID NO: 3) depending on their particle size. Two fractions were observed. […] In contrast, the fraction 1 contains a mixture of larger aggregates.
The hydrodynamic radius (Rh) of both the loaded and unloaded fusion protein, along with plain A192, was measured via dynamic light scattering (DLS) using a DynaPro Plate Reader II from Wyatt Technology. Before the DLS measurement, solutions were filtered through […] pore size filters. The concentration of each solution was then adjusted to 20 μM. 60 μL from each sample was pipetted into three different wells on the plate reader and covered by 15 μL mineral oil each to avoid solvent evaporation. Centrifugation was then performed to remove air bubbles. […] Based on this DLS method, Applicants performed a stability assay to explore the stability of the fusion protein by measuring the mean Rh shift during incubation at physiological temperature. Briefly, the fusion solution was incubated at 37° C. for different periods of time up to 48 h and the mean Rh of CA192 at these different time points was measured with DLS. […] There might be some slight aggregation occurring in the CA192 protein solution. […] To determine if this was the case, further separation was conducted with size exclusion chromatography (SEC). This process was performed at 4° C. using a Hiload 26/600 column (26×600 mm, particle size 24-44 μM). […] Fragments with absorption above 10 mAu were collected and concentrated with a Spin-X concentrator (pore size 10 kDa). […] (FIG. 5D) Through measuring the CA192 concentration of both fractions, Applicants determined that 20.8% by mass in solution is represented by the multimerized particles. […]

[5] = SEC / Multi-Angle Static Light Scattering (MALS) of CA192 fractions; assay type: physicochemical
Method: The hydrodynamic radius (Rh) of both the loaded and unloaded fusion protein, along with plain A192, was measured via dynamic light scattering (DLS) using a DynaPro Plate Reader II from Wyatt Technology. Before the DLS measurement, solutions were filtered through […] pore size filters. The concentration of each solution was then adjusted to 20 μM. 60 μL from each sample was pipetted into three different wells on the plate reader and covered by 15 μL mineral oil each to avoid solvent evaporation. Centrifugation was then performed to remove air bubbles. […] Based on this DLS method, Applicants performed a stability assay to explore the stability of the fusion protein by measuring the mean Rh shift during incubation at physiological temperature. Briefly, the fusion solution was incubated at 37° C. for different periods of time up to 48 h and the mean Rh of CA192 at these different time points was measured with DLS. […] There might be some slight aggregation occurring in the CA192 protein solution. […] To determine if this was the case, further separation was conducted with size exclusion chromatography (SEC). This process was performed at 4° C. using a Hiload 26/600 column (26×600 mm, particle size 24-44 μM). […] Fragments with absorption above 10 mAu were collected and concentrated with a Spin-X concentrator (pore size 10 kDa). Two fractions were observed after SEC separation (FIG. 5C). […] (FIG. 5D) Through measuring the CA192 concentration of both fractions, Applicants determined that 20.8% by mass in solution is represented by the multimerized particles. Multi-Angle static Light Scattering (MALS) was then applied to evaluate the aggregation and oligomeric state of CA192. […] Thus, it was concluded that the CA192 fusion protein is mostly maintained as dimerized nanoparticles with a 6.5 nm hydrodynamic radius.
To further evaluate the aggregation and oligomeric state of each fraction, Multi-Angle Static Light Scattering (MALS) was then used to measure the molecular weight of both peaks. […] Similarly, fraction 1 was identified as aggregated form. […]

HeLa cells = assay: HeLa cell uptake, co-localization with lysosomes (confocal microscopy); assay type: cell-based; conditions: 30 μM rhodamine-labeled ELP; 120 min; LysoTracker Green
Method: Lysosomes were labeled by LysoTracker Green® having the structure:
In order to further validate the potential efficacy of CA192 working as a potent drug binding domain, an in vitro cell uptake study was performed. Briefly, CA192 and A192 was labeled with rhodamine and HeLa cell lysosome with LysoTracker Green (LTG)® having the structure as described herein. For the treatment group, HeLa cells were incubated with 30 μM of rhodamine-labeled (rh)-CA192 and 70 nM of LTG for 120 min. For the control group, HeLa cells were incubated with 30 μM of rhodamine-labeled (rh)-A192 and 70 nM of LTG for 120 min. Cells were then rinsed with warm HBSS three times, maintained in the fresh culture medium, and imaged by confocal microscopy. Images were acquired using a Zeiss laser scanning microscope 510 Meta NLO confocal imaging system equipped with Argon, red HeNe, green HeNe laser, and a Coherent Chameleon Ti-Sapphire laser (LSM) mounted on a vibration-free table (Carl Zeiss, Thornwood, N.Y.). All images were acquired using a Plan-Apochromat 63× Oil immersion lens with a working distance of 0.19 mm.

human albumin = human albumin (Homo sapiens, UniProt P02768); assay: Competition of CsA-loaded CA192 against human albumin (1 mM, 37° C.); assay type: in vitro ADME; conditions: 48 h
Method: Per molecule of protein, CA192 (SEQ ID NO: 3) binds 10× more drug than albumin. […] The mixture was incubated at 37° C. and samples were collected at different time points up to 48 h. The ELP phase separation was induced to purify CA192 (SEQ ID NO: 3) from the mixture with Albumin, which was—followed by RP-HPLC analysis. (FIG. 4C) Instead of albumin, lipoproteins in the plasma, mainly high-(HDL) and low-(LDL) density lipoprotein, predominantly bind to cyclosporine in the plasma. Thus, CA192-CsA was also tested against mouse plasma over a period of 48 hr.
Samples were collected from the dialysis cassette at different time points between 0 and 192 h and analyzed by RP-HPLC. […] The same drug release experiment was performed using CA192 dimer obtained via SEC. Dialysis was performed against PBS at 37° C. (FIG. 3B) and 4° C. (FIG. 3C). To further validate the release profile, as a control group, with the same encapsulation method, human albumin was explored to load CsA. […] The mixture was incubated at 37° C. and samples were collected at different time points up to 48 h. Another round of […] was performed to purify CA192 from the mixture, followed by RP-HPLC analysis. […] Similar to this competition method against albumin, 300 μM CA192-CsA in PBS was diluted 1:1 in mouse plasma to achieve a final concentration of 150 μM. […]

With “(Val-Pro-Gly-Ile-Gly): ELP monoblock library, SEQ ID NO: 63 (VPGIG)” the Tc [1] was 13.0 ± 0.6 °C, the n [1] was 760 ± 30 °C pentamers and the m [1] was 0 ° C./ln(μM). For the same substance, the K [1] was −81.2 ± 7.9 °C pentamers/ln(μM).

In the case of “(Val-Pro-Gly-Ser-Gly): ELP monoblock library, SEQ ID NO: 60 (VPGSG)”, the Tc [1] is reported as 63.6 ± 1.1 °C, the m [1] is reported as −1.86 ± 0.31 ° C./ln(μM) and the K [1] is reported as 0 °C pentamers/ln(μM).

For “(Val-Pro-Gly-Val-Gly): ELP monoblock library, SEQ ID NO: 62 (VPGVG)”, the Tc [1] was 21.2 ± 0.9 °C, the n [1] was 1607 ± 90 °C pentamers and the m [1] was 0 ° C./ln(μM). The K [1] was −163.1 ± 23.3 °C pentamers/ln(μM).

In the case of “CA96C: 2nd generation carrier CypA-A96-CypA, SEQ ID NO: 8”, the CsA loading ratio ([2]; FIG. 16) is reported as 127.5%.

In the case of “CA192: cyclophilin A fused to ELP A192, SEQ ID NO: 3”, the “Transition temperature (Tt)” value [3] is reported as 45.4 °C, the “Slope, m” value ([3]; mean ± 95% CI, Table 2) is reported as 1.3 ° C./Log10(μM) and 1.3 ± 0.27 ° C./Log10(μM) and the “Intercept, b” value ([3]; mean ± 95% CI, Table 2) is reported as 47.1 °C and 47.1 ± 0.39 °C. The “stability of Rh” value ([4]; 37° C., up to 48 h) was “well maintained throughout 48 h; also recorded: no significant hydrodynamic radius shift; also recorded: stability over 2 days”, the “mean hydrodynamic radius (Rh)” value ([4]; DLS intensity, 20 μM) was 64.8±0.7 nm and the “Mass Fraction, Fraction 1 (Nano-aggregated form)” value ([5]; MALS) was 10.1%. The “Mass Fraction, Fraction 2 (Dimeric form)” value ([5]; MALS) was 89.9%, the “multimerized particles in solution” value ([5]; from CA192 concentration of both SEC fractions) was 20.8 % by mass and the “CsA loading compared with a comparator” value [2] was “significantly more drug than albumin”. The co-localization with lysosomes (HeLa cells) was “obvious co-localization with lysosome; also recorded: co-localized with lysosomes; also recorded: co-localizing with lysosomes” and the “transfer of CsA from CA192 to albumin” value (human albumin) was “No significant drug loss; also recorded: unable to extract CsA”.

For “CV96: cyclophilin A fused to ELP V96, SEQ ID NO: 4”, the “Transition temperature (Tt)” value [3] was 31.2 °C, the “Slope, m” value ([3]; Table 3) was 4.4 ° C./Log10(μm) and the “Intercept, b” value ([3]; Table 3) was 36.8 °C. For the same substance, the “CsA loading compared with a comparator” value [2] was “higher loading ratio”.

With “dimerized CA192: dimeric fraction of CA192 isolated by size exclusion chromatography” the “Transition temperature (Tt)” value [3] was 49.3 °C and the “hydrodynamic radius (Rh) after SEC” value ([4]; 99.2% by mass of fraction 2) was 6.5±0.1 nm.
